Laboratory results taken from the supplement of paper PMC10065799, “High-throughput profiling of sequence recognition by tyrosine kinases and SH2 domains using bacterial peptide display” (eLife, 2023).

Assays:
Hck = Hck (UniProt P08631); test: phosphorylation enrichment, bacterial display (enrichment ratio); higher = better substrate or ligand; peptides without Tyr show the background
Jak2 = Jak2 (UniProt O60674); test: as above
Fes = Fes (UniProt P07332); test: as above
FGFR1 = FGFR1 (UniProt P11362); test: as above
Fer (mouse) = test: as above
EPHB2 = EPHB2 (UniProt P29323); test: as above
EPHB1 = EPHB1 (UniProt P54762); test: as above
MERTK = MERTK (UniProt Q12866); test: as above
AncSZ = test: as above
FGFR3 = FGFR3 (UniProt P22607); test: as above
c-Src = test: as above
c-Abl (mouse) = test: as above
Fyn = Fyn (UniProt P06241); test: as above
c-Src SH2 = test: SH2 binding enrichment of the phosphorylated peptide, bacterial display (enrichment ratio); higher = better substrate or ligand; peptides without Tyr show the background
SHP2-C SH2 = test: as above
Grb2 SH2 = Grb2 SH2 (UniProt P62993); test: as above
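For SH2 binding enrichment of the phosphorylated peptide, bacterial display in this document: peptide library displayed on the E. coli surface as eCPX fusions, selected cells deep-sequenced, score is each peptide's frequency after selection divided by its frequency in the input.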
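For phosphorylation enrichment, bacterial display in this document: 11-residue human phosphosite peptides and single-mutation variants displayed on the E. coli surface, counted by deep sequencing, each peptide's frequency after selection divided by its frequency in the unselected input library; frequency after pTyr selection over input frequency; kinase dosed for 20-30% of maximal phosphorylation in three min.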

Chain of FGFR1 (P11362 whole entry, looked up): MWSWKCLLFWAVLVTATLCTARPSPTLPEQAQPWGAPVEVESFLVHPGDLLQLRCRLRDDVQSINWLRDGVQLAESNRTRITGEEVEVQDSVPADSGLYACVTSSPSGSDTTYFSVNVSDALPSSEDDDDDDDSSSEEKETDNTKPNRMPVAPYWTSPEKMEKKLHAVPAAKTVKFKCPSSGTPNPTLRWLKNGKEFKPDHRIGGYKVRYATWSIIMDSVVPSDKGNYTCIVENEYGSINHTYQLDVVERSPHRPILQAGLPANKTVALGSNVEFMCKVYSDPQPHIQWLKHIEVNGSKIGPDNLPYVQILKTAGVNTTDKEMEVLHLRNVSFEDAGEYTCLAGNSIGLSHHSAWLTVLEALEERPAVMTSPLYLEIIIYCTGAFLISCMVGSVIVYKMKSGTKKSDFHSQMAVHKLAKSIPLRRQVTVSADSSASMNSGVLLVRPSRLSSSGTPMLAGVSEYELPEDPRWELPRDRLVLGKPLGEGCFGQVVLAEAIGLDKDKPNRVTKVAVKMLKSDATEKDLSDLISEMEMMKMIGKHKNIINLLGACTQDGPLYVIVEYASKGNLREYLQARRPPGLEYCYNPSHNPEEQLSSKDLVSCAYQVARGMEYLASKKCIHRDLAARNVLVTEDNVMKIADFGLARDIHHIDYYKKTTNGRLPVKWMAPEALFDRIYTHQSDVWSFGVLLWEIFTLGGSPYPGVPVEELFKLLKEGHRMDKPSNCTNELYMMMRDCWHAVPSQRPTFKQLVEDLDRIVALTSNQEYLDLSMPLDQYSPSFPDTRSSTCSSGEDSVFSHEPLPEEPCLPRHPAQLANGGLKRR
Chain of Fes (P07332 whole entry, looked up): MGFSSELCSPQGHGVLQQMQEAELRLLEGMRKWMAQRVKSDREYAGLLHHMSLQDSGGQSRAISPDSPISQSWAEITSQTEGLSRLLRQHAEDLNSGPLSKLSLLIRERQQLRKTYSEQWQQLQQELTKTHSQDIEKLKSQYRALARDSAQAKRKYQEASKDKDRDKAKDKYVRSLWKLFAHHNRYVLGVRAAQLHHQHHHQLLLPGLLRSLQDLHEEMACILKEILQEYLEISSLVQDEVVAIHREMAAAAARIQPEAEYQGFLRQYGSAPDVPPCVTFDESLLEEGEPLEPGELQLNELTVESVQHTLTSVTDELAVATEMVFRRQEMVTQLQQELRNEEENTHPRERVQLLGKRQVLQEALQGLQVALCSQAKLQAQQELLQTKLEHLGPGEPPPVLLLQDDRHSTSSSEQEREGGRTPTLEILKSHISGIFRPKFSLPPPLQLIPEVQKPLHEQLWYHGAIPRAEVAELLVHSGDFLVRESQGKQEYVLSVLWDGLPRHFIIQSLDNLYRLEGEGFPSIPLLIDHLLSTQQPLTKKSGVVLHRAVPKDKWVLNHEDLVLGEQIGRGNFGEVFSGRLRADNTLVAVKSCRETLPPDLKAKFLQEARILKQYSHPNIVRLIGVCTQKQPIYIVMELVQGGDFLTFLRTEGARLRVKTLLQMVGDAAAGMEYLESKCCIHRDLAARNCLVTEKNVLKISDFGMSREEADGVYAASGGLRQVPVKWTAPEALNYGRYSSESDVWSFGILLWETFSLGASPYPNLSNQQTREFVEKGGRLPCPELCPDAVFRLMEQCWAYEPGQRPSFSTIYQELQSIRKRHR
Chain of Hck (P08631 whole entry, looked up): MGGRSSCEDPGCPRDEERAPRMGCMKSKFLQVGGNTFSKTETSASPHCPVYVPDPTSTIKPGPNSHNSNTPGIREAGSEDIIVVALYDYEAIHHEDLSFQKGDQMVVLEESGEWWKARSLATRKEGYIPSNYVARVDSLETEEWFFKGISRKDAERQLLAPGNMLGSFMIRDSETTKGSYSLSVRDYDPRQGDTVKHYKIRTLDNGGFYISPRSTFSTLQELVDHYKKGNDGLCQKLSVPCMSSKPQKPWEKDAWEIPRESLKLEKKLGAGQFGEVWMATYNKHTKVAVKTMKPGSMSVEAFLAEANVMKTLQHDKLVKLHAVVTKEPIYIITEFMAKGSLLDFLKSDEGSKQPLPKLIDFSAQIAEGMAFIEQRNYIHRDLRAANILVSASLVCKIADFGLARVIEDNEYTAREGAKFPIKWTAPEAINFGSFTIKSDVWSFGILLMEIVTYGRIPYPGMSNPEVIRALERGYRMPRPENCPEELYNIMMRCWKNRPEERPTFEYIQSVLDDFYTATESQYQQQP
Chain of Fyn (P06241 whole entry, looked up): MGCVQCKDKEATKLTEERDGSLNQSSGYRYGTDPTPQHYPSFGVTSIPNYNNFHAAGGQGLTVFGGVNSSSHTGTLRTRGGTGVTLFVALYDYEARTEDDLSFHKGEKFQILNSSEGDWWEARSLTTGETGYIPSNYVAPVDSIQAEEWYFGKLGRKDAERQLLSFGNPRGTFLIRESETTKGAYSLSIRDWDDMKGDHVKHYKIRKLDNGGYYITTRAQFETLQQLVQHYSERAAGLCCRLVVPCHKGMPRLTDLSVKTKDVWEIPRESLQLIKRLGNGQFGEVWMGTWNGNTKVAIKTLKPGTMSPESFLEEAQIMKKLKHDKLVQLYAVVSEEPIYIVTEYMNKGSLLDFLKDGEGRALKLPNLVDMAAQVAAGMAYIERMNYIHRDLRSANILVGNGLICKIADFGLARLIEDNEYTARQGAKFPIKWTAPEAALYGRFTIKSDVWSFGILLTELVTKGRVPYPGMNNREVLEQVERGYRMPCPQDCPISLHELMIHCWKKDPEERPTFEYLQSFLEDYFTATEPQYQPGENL
Chain of MERTK (Q12866 whole entry, looked up): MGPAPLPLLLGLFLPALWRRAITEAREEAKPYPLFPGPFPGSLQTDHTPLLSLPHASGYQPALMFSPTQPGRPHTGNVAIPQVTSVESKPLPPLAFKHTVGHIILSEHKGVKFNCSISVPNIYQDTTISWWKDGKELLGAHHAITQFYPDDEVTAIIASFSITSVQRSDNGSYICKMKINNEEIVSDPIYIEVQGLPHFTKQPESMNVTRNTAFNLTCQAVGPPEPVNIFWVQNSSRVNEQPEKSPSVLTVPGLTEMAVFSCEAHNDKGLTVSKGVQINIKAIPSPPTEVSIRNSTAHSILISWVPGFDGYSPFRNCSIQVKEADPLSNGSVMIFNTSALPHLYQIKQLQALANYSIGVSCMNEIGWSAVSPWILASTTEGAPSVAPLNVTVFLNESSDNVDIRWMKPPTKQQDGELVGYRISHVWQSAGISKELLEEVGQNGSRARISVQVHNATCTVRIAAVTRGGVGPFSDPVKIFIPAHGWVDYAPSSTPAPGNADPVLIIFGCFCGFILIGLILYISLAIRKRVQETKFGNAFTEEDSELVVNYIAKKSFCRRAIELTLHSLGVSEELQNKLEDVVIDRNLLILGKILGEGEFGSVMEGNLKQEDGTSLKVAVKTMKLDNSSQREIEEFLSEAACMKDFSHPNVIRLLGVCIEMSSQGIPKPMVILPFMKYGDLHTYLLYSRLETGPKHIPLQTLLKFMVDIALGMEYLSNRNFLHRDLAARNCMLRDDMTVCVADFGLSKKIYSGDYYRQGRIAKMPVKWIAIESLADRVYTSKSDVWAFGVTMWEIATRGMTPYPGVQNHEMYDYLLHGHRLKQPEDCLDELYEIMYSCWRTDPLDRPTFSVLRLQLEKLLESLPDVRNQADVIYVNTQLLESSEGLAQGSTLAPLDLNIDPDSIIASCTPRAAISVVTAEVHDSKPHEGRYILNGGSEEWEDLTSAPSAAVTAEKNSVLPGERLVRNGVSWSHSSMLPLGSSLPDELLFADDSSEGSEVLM
Chain of EPHB2 (P29323 whole entry, looked up): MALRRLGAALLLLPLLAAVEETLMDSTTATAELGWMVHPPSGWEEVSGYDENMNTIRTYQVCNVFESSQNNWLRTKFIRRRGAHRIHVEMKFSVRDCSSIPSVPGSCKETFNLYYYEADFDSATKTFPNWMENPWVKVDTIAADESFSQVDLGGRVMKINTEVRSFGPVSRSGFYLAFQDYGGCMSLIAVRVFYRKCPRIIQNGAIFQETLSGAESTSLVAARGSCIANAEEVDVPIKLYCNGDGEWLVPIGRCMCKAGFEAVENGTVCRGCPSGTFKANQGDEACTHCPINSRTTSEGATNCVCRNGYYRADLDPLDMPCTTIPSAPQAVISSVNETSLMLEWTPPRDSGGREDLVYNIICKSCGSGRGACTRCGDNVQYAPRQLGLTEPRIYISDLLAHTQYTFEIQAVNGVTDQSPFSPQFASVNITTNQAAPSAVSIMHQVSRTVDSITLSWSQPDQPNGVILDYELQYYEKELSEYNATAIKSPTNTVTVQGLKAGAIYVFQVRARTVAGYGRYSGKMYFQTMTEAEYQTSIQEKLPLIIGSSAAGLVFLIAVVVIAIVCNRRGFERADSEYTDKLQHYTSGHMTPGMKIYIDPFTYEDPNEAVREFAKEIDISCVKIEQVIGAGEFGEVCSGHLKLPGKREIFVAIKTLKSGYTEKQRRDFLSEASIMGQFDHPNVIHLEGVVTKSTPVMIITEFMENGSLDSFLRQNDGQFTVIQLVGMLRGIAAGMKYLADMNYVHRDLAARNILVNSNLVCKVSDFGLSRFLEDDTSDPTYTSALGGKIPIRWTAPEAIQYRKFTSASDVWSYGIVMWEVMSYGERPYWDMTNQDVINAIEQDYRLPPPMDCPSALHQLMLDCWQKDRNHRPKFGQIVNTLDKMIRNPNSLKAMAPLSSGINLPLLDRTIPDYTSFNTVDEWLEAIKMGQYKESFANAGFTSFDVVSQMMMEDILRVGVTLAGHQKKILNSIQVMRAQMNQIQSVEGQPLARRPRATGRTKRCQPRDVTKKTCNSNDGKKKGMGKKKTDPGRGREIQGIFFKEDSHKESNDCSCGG

Row | Sequence | SH2 binding enrichment (c-Src SH2) | SH2 binding enrichment (SHP2-C SH2) | SH2 binding enrichment (Grb2 SH2) | phosphorylation enrichment (Hck) | phosphorylation enrichment (Jak2) | phosphorylation enrichment (Fes) | phosphorylation enrichment (FGFR1) | phosphorylation enrichment (Fer (mouse)) | phosphorylation enrichment (EPHB2) | phosphorylation enrichment (EPHB1) | phosphorylation enrichment (MERTK) | phosphorylation enrichment (AncSZ) | phosphorylation enrichment (FGFR3) | phosphorylation enrichment (c-Src) | phosphorylation enrichment (c-Abl (mouse)) | phosphorylation enrichment (Fyn)
1 | AAARPYHIQKW [ACSBG1_Y677] | 1.19 | 1.27 | 1.41 | 0.543 | 0.682 | 0.675 | 0.462 | 0.279 | 0.465 | 0.468 | 0.377 | 0.601 | 0.584 | 0.62 | 0.673 | 0.371
2 | AAFNRYDQERF [CDC73_Y293_YF] | 0.448 | 0.549 | 0.866 | 0.397 | 0.609 | 0.856 | 0.394 | 0.463 | 0.473 | 0.402 | 0.398 | 0.665 | 0.504 | 0.427 | 0.684 | 0.469
3 | AAVDEYLEYRR [FAM221A_Y17] | 0.539 | 1.17 | 0.846 | 0.863 | 1.21 | 1 | 0.513 | 0.401 | 0.477 | 0.531 | 0.469 | 1.1 | 0.522 | 0.925 | 0.698 | 0.62
4 | AAVLNYKAGRD [GRIN2A_Y737] | 0.447 | 0.44 | 0.835 | 0.322 | 0.469 | 0.482 | 0.382 | 0.342 | 0.33 | 0.352 | 0.41 | 0.461 | 0.379 | 0.432 | 0.389 | 0.397
5 | ADCRYYTFPQM [GAMT_Y223_A224T] | 3.2 | 1.34 | 1.05 | 3.29 | 4.44 | 0.998 | 10.9 | 4.67 | 2.84 | 4.67 | 9.97 | 3.09 | 7.83 | 4.77 | 1.99 | 3.97
6 | ADEEYYEIIAA [FEStide_no-pY_2014] | 1.01 | 0.647 | 0.956 | 2.32 | 1.31 | 1.48 | 9.19 | 5.58 | 0.795 | 1.02 | 1.53 | 3.85 | 7.62 | 2.47 | 1.14 | 2.17
7 | AEQDCYHGAIP [FER_Y461_W460C] | 0.65 | 0.827 | 0.96 | 0.499 | 0.742 | 1.01 | 0.523 | 0.456 | 0.655 | 0.648 | 0.453 | 0.864 | 0.599 | 0.599 | 0.706 | 0.472
8 | AGITAYQSCLQ [ADGRA2_Y377] | 0.395 | 0.497 | 0.827 | 0.568 | 1.03 | 1.3 | 0.562 | 0.63 | 0.717 | 0.685 | 0.59 | 1.12 | 0.951 | 0.518 | 0.918 | 0.633
9 | AKNKDYMSIIR [GNE_Y197] | 0.774 | 0.879 | 0.9 | 0.483 | 0.706 | 0.677 | 0.432 | 0.473 | 0.553 | 0.851 | 0.468 | 0.585 | 0.585 | 0.452 | 0.676 | 0.409
10 | ALAHKYHGGGG [HBB_Y146] | 0.43 | 0.63 | 0.756 | 0.417 | 0.503 | 0.578 | 0.537 | 0.361 | 0.349 | 0.333 | 0.461 | 0.621 | 0.343 | 0.383 | 0.534 | 0.426
11 | ALAHKYLGGGG [HBB_Y146_H147L] | 0.503 | 0.608 | 1.01 | 0.347 | 0.464 | 0.389 | 0.307 | 0.269 | 0.387 | 0.324 | 0.407 | 0.378 | 0.325 | 0.278 | 0.289 | 0.366
12 | ALTDNYMFLVI [HAGH_Y61_YF] | 0.366 | 0.441 | 0.68 | 0.869 | 1.49 | 1.62 | 7.04 | 2.88 | 6.12 | 8.31 | 1.97 | 1.37 | 5.16 | 0.733 | 1.22 | 0.615
13 | ALVDTYCRHNY [HLA-DRB1_Y107_A103L] | 0.582 | 0.79 | 0.911 | 0.549 | 0.456 | 0.709 | 0.401 | 0.442 | 0.486 | 0.439 | 0.618 | 0.474 | 0.501 | 0.432 | 0.515 | 0.46
14 | ALWFIYLHTRS [ENG_Y614_S615L_YF] | 0.564 | 0.882 | 0.875 | 0.428 | 1.13 | 1.37 | 0.409 | 0.485 | 0.583 | 0.585 | 0.422 | 1.2 | 0.778 | 0.411 | 0.979 | 0.433
15 | APIEDYGGGGG [B4GALT6_Y382] | 0.501 | 0.627 | 0.702 | 0.509 | 0.794 | 0.965 | 0.523 | 0.505 | 0.599 | 0.649 | 0.461 | 0.872 | 0.697 | 0.449 | 0.661 | 0.566
16 | APQYTYAQGGQ [FLNA_Y1763] | 2.62 | 1.26 | 0.778 | 0.509 | 0.54 | 0.643 | 0.453 | 0.409 | 0.43 | 0.373 | 0.486 | 0.72 | 0.53 | 0.455 | 0.54 | 0.486

Continued, in another order:

Row | SH2 binding enrichment (c-Src SH2) | SH2 binding enrichment (SHP2-C SH2) | SH2 binding enrichment (Grb2 SH2) | Sequence | phosphorylation enrichment (Hck) | phosphorylation enrichment (Jak2) | phosphorylation enrichment (Fes) | phosphorylation enrichment (FGFR1) | phosphorylation enrichment (Fer (mouse)) | phosphorylation enrichment (EPHB2) | phosphorylation enrichment (EPHB1) | phosphorylation enrichment (MERTK) | phosphorylation enrichment (AncSZ) | phosphorylation enrichment (FGFR3) | phosphorylation enrichment (c-Src) | phosphorylation enrichment (c-Abl (mouse)) | phosphorylation enrichment (Fyn)
17 | 4.32 | 0.744 | 1.12 | AAAAMYTFLPD [MYORG_Y36] | 4.23 | 1.31 | 1.12 | 13.5 | 1 | 1.46 | 2.82 | 10.9 | 1.26 | 12 | 4.45 | 1 | 1.61
18 | 0.583 | 0.772 | 0.877 | AAVDNYCRHNF [HLA-DRB1_Y107_T106N_YF] | 0.203 | 0.928 | 0.53 | 0.442 | 0.471 | 0.234 | 0.753 | 0.326 | 0.41 | 1.33 | 0.349 | 0.484 | 0.587
19 | 0.465 | 0.477 | 0.653 | ADARMYGVHPW [PLP1_Y207_L210H] | 2.42 | 0.521 | 0.726 | 0.38 | 0.355 | 0.493 | 0.458 | 0.391 | 0.604 | 0.481 | 3.64 | 0.53 | 4.81
20 | 0.467 | 0.793 | 0.88 | ADKSAYLMGLN [MYH7_Y386] | 0.524 | 0.67 | 0.671 | 0.526 | 0.549 | 0.465 | 0.405 | 0.502 | 0.625 | 0.579 | 0.535 | 0.467 | 0.543
21 | 0.638 | 0.716 | 1.13 | ADLTEYLSTHY [UQCRC1_Y219] | 0.555 | 0.908 | 0.972 | 0.52 | 0.553 | 0.622 | 0.58 | 0.462 | 1.01 | 0.697 | 0.625 | 0.649 | 0.549
22 | 0.617 | 1.08 | 0.897 | ADRTRYSAFGG [RBM4_Y361_A359T] | 0.37 | 0.551 | 0.797 | 0.391 | 0.4 | 0.356 | 0.345 | 0.382 | 0.599 | 0.44 | 0.399 | 0.495 | 0.413
23 | 0.634 | 0.799 | 0.833 | ADYPDCKYRPR [SOX11_Y116_Y116C] | 0.416 | 0.657 | 0.955 | 0.606 | 0.426 | 0.51 | 0.496 | 0.41 | 0.733 | 0.626 | 0.406 | 0.706 | 0.427
24 | 0.564 | 6.25 | 0.698 | ADYYDYGRGLS [KHDRBS3_Y304_H306R] | 7.62 | 6.26 | 0.831 | 17.9 | 1.22 | 17.4 | 15.9 | 3.88 | 3.83 | 15.5 | 4.1 | 0.967 | 6.79
25 | 0.566 | 0.619 | 0.855 | AEYGLYRAMVR [VSX2_Y222_G223R] | 9.69 | 0.75 | 0.768 | 0.577 | 0.603 | 3.62 | 2.89 | 2.38 | 0.814 | 0.679 | 6.94 | 7.87 | 9.03
26 | 1.02 | 0.598 | 0.98 | AGREEYSAMRD [KRAS_Y64_Q61R] | 0.508 | 0.686 | 0.834 | 0.472 | 0.453 | 0.546 | 0.506 | 0.425 | 0.787 | 0.575 | 0.421 | 0.655 | 0.479
27 | 1.03 | 1.4 | 1.06 | AGREIYESDKC [TTN_Y4424] | 0.523 | 0.731 | 0.996 | 0.608 | 0.519 | 0.607 | 0.524 | 0.447 | 0.949 | 0.819 | 0.536 | 0.616 | 0.538
28 | 0.785 | 1.18 | 0.996 | AIMSFYAALIN [RYR1_Y2426_D2431N] | 0.764 | 1.06 | 1.3 | 0.575 | 0.672 | 0.991 | 1.14 | 1.09 | 1.13 | 0.772 | 0.497 | 1 | 0.508
29 | 0.718 | 1.75 | 0.936 | AKLVQYYMEHH [PTPN11_Y80_E76K] | 0.637 | 0.799 | 0.839 | 0.633 | 0.447 | 1.21 | 2.46 | 0.983 | 0.774 | 0.549 | 0.615 | 0.709 | 0.469
30 | 1.19 | 0.646 | 4.11 | AKQVGYENAGT [PC_Y304] | 0.464 | 0.467 | 0.614 | 0.394 | 0.461 | 0.446 | 0.511 | 0.432 | 0.633 | 0.549 | 0.433 | 0.447 | 0.439
31 | 0.464 | 0.616 | 0.815 | APGDAYGDAGY [SYP_Y250] | 0.463 | 0.765 | 0.871 | 0.494 | 0.512 | 0.662 | 0.541 | 0.442 | 0.891 | 0.615 | 0.405 | 0.616 | 0.413
32 | 0.421 | 0.647 | 0.836 | AQADIYKADFQ [IKBKG_Y308] | 0.78 | 0.672 | 0.848 | 0.44 | 0.354 | 0.535 | 0.465 | 0.399 | 0.856 | 0.722 | 0.925 | 0.675 | 0.734
33 | 2.79 | 0.699 | 0.858 | AQAERYDDMAA [YWHAG_Y20_E15A] | 0.476 | 0.954 | 0.881 | 0.469 | 0.529 | 0.595 | 0.577 | 0.389 | 0.871 | 0.67 | 0.439 | 0.668 | 0.478
